Assay results reported in patent WO2019024911A1 (dated 2019).

T1: human B7H3 antigen for screening and detection, 2Ig-B7H3 (R&D cat#1949-B3-050/CF) (human, UniProt Q5ZPR3 29-245)
T1 construct: Commercial product; also called human 2Ig-B7H3
T1 sequence: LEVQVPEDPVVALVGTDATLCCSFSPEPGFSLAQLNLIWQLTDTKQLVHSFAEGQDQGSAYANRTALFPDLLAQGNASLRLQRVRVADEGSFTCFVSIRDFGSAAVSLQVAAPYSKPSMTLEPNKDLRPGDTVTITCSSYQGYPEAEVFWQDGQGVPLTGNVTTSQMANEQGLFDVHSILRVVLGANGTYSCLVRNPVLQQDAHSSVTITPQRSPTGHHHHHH

T2: human B7H3 antigen for detection, 4Ig-B7H3 (SinoBiological cat#11188-H08H) (human, UniProt Q5ZPR3 29-461)
T2 construct: Commercial product; also called human 4Ig-B7H3
T2 sequence: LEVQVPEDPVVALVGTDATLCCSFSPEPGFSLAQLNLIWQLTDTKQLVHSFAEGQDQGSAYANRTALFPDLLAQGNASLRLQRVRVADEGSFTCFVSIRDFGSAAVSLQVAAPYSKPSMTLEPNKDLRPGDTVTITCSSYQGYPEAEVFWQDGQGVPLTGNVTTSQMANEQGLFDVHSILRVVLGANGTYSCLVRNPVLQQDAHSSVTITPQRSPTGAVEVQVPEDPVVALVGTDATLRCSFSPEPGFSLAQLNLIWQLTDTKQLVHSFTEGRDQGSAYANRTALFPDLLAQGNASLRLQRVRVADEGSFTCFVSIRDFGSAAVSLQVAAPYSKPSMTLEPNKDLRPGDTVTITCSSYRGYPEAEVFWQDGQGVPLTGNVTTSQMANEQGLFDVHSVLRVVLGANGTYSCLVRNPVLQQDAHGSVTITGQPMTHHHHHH

T3: murine B7H3 antigen for screening and detection (R&D cat#1397-B3-050/CF) (mouse, UniProt Q8VE98 29-244)
T3 construct: Commercial product; also called mouse B7H3
T3 sequence: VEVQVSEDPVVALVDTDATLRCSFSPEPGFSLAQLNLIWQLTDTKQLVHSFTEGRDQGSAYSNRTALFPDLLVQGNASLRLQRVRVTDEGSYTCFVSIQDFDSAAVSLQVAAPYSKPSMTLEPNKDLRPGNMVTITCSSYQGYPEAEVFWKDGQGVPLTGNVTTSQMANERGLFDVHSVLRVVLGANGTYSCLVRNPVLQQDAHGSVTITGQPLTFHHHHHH

B1: h1702 antibody (fully human anti-B7H3 full-length antibody) (antibody, human IgG1, lambda)
heavy: not shown
light: QTVVTQEPSFSVSPGGTVTLTCGLSSGSVSTSHYPSWYQQTPGQAPRMLIYNTNTRSSGVPDRFSGSILGNKAALTITGAQADDESDYYCAIHVDRDIWVFGGGTKLTVLGQPKANPTVTLFPPSSEELQANKATLVCLISDFYPGAVTVAWKADGSPVKAGVETTKPSKQSNNKYAASSYLSLTPEQWKSHRSYSCQVTHEGSTVEKTVAPTECS
notes: IgG1 heavy chain, lambda light chain; naked antibody expressed in HEK293E cells; also called B7H3-h1702
B2: B7H3-h1702-L2-MC-MMAF (antibody-drug conjugate of h1702 with MC-MMAF) (antibody, human IgG1, lambda)
heavy: not shown
light: B1 light
modifications: MC-MMAF coupled through a propylthiol linker (L2) to lysine residues of the antibody; positions not given; average y = 1.76 per antibody
notes: also called h1702-MMAF
B3: B7H3-h1702-L2-3024 (antibody-drug conjugate of h1702 with drug-linker 3024) (antibody, human IgG1, lambda)
heavy: not shown
light: B1 light
modifications: drug-linker 3024 coupled through a propylthiol linker (L2) to lysine residues of the antibody; positions not given; average y = 2.05 per antibody
notes: also called h1702-3024
B4: B7H3-h1703-L2-MC-MMAF (antibody-drug conjugate of h1703 with MC-MMAF) (antibody, human IgG1, kappa, V domains shown)
VH: QVQLQESGGGLVQPGGSLRLSCAASGFTFSSYAMSWVRQAPGKGLEWVSAISGSGGSTYYADSVKGRYTISRDNSKNTLYLQMNSLRAEDTAVYYCAKGVGPVHALDVWGQGTTVTVSS
VL: DIRLTQSPSSLSASVGDRVTITCRASQSISTYLNWYQQKPGKAPILLINAVSGLQSGVPSRFSGSGSGTHFTLTITSLQPEDFATYYCQQSYSTPMWTFGQGTKVEIKR
modifications: MC-MMAF coupled through a propylthiol linker (L2) to lysine residues of the antibody; positions not given; average y = 2.29 per antibody
notes: also called h1703-MMAF
B5: B7H3-h1703-L2-3024 (antibody-drug conjugate of h1703 with drug-linker 3024) (antibody, human IgG1, kappa, V domains shown)
VH: B4 VH
VL: B4 VL
modifications: drug-linker 3024 coupled through a propylthiol linker (L2) to lysine residues of the antibody; positions not given; average y = 1.62 per antibody
notes: also called h1703-3024
B6: h1703 antibody (fully human anti-B7H3 full-length antibody) (antibody, human IgG1, kappa, V domains shown)
VH: B4 VH
VL: B4 VL
notes: IgG1 heavy chain, kappa light chain; naked antibody; also called B7H3-h1703
B7: B7H3-h1702-cys-3024 (antibody-drug conjugate of h1702 with drug-linker 3024 on cysteines) (antibody, human IgG1, lambda)
heavy: not shown
light: B1 light
modifications: drug-linker 3024 on cysteine thiols after TCEP reduction; positions not given; average y = 3.5 per antibody
B8: B7H3-h1702DS-cys-3024 (antibody-drug conjugate of h1702-DS with drug-linker 3024 on cysteines) (antibody, human IgG1, lambda)
heavy: not shown
light: DTVVTQEPSFSVSPGGTVTLTCGLSSGSVSTSHYPSWYQQTPGQAPRMLIYNTNTRSSGVPDRFSGSILGNKAALTITGAQADDESDYYCAIHVDRDIWVFGGGTKLTVLGQPKANPTVTLFPPSSEELQANKATLVCLISDFYPGAVTVAWKADGSPVKAGVETTKPSKQSNNKYAASSYLSLTPEQWKSHRSYSCQVTHEGSTVEKTVAPTEC
modifications: drug-linker 3024 on cysteine thiols after TCEP reduction; positions not given; average y = 3.55 per antibody
B9: B7H3-h1704-3-cys-3024 (antibody-drug conjugate of humanized h1704-3 with drug-linker 3024 on cysteines) (antibody, human IgG1, kappa, V domains shown)
VH: EVQLVESGGGLVKPGGSLRLSCAASGFTFSRYGMSWVRQAPGKGLEWVSAISSGGGSIYYPDTVKGRLTISRDNAKNTLYLQMNSLRAEDTAVYYCTRHYLLFEMDYWGQGTTVTVSS
VL: DIVLTQSPSFLSASVGDRVTITCKASQNVNTAVAWYQQKPGKAPKLLIFSASNRYTGVPSRFSGSGSGTDFTLTISSLQPEDVAAYFCQQYSSSLTFGGGTKLEIKR
modifications: drug-linker 3024 on cysteine thiols after TCEP reduction; positions not given; average y = 3.4 per antibody
notes: Antibody-drug conjugate made from antibody h1704-3 (IgG1, kappa)

Molecular target: T1, human B7H3 antigen for screening and …
Test: ELISA, antigen coated at 1 ug/ml, HRP anti-human IgG Fc detection

| Binder | EC50 [nM] |
| --- | --- |
| B1 | 0.11 |
| B2 | 0.16 |
| B3 | 0.17 |
| B4 | 2.36 |
| B5 | 15.1 |
| B6 | 10.3 |

Molecular target: T2, human B7H3 antigen for detection, …
Test: as above

| Binder | EC50 [nM] |
| --- | --- |
| B1 | 0.16 |
| B2 | 0.18 |
| B3 | 0.26 |
| B4 | 3.08 |
| B5 | 4.97 |
| B6 | 2.1 |

Molecular target: T3, murine B7H3 antigen for screening and …
Test: ELISA, mouse B7H3 coated at 1 ug/ml, HRP anti-human IgG Fc detection

| Binder | EC50 [nM] |
| --- | --- |
| B1 | 18.1 |
| B2 | 59 |
| B3 | 131 |
| B4 | 116 |
| B5 | 115 |
| B6 | 86.7 |

Molecular target: T1, human B7H3 antigen for screening and …
Test: SPR (Biacore T200), ADC captured on Protein A chip, antigen in flow, 1:1 Langmuir fit

| Binder | Kd [nM] |
| --- | --- |
| B3 | 580 |
| B5 | 219 |

Molecular target: T2, human B7H3 antigen for detection, …
Test: as above

| Binder | Kd [nM] |
| --- | --- |
| B3 | 10.5 |

Molecular target: T1, human B7H3 antigen for screening and …
Test: SPR (Biacore T200), antibody captured on Protein A chip, antigen in flow, 1:1 Langmuir fit

| Binder | Kd [nM] |
| --- | --- |
| B1 | 797 |
| B6 | 448 |

Molecular target: T2, human B7H3 antigen for detection, …
Test: as above

| Binder | Kd [nM] |
| --- | --- |
| B1 | 8.55 |

Molecular target: T2, human B7H3 antigen for detection, …
Test: ELISA, antigen coated at 1 ug/ml, HRP anti-human IgG Fc detection (column of the single value not certain)

| Binder | EC50 [nM] |
| --- | --- |
| B7 | 0.29 |
| B8 | 0.3 |
| B9 | 0.09 |

Molecular target: T1, human B7H3 antigen for screening and …
Test: SPR (Biacore T200), ADC captured on Protein A chip, antigen in flow, 1:1 Langmuir fit (column of the single value inferred)

| Binder | Kd [nM] |
| --- | --- |
| B2 | 452 |
| B4 | 193 |

Molecular target: T2, human B7H3 antigen for detection, …
Test: as above

| Binder | Kd [nM] |
| --- | --- |
| B7 | 11.2 |
| B8 | 10.6 |
| B9 | 0.778 |
